# Test results taken from US7910549.
# Molecular target: monoclonal antibody M75 (MAb M75), secreted by hybridoma VU-M75, ATCC HB 11128
# Assay: competition ELISA (peptide against immobilized GST-MN for M75)
binder,measurement,value
GGSSGEDDPLGEEDLPSEEDSP [oligopeptide … (aa 51-72) [SEQ ID NO: 104]],IC50,1 ng/mL
